Here are results for 2 molecules from US20240287172A1 (SCIRHOM, published 2024).

Residue numbers refer to the chain shown, from its start.

In one assay the target is T1, hiR2-FL-V434E-T7 (human, UniProt Q6PJF5 1-856).
T1 sequence: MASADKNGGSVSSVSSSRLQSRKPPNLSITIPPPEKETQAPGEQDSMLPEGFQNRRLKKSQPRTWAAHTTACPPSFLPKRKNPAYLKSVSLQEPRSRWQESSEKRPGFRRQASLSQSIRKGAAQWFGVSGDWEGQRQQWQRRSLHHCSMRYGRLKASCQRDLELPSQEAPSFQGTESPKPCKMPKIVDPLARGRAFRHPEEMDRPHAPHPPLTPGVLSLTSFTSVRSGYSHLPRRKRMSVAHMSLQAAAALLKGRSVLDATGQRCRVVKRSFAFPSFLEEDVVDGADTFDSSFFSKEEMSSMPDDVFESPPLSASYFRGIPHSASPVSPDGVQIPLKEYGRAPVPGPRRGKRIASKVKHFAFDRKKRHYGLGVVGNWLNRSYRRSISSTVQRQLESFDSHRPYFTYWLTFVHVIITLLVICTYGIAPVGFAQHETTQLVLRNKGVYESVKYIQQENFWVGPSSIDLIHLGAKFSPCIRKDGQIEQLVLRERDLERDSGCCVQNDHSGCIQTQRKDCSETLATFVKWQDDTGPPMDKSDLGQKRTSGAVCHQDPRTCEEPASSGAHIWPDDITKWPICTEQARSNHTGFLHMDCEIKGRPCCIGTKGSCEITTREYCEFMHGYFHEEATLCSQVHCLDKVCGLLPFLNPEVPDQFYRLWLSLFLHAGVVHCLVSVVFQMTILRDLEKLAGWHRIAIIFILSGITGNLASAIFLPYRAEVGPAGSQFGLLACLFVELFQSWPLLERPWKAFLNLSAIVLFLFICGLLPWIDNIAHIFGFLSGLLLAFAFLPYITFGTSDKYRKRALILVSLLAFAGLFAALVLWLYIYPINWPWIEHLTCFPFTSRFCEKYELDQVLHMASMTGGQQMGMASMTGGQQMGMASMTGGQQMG
In words: FACS, MEF-DKO cells, 3 µg/ml. From the text:
(§1) In brief, immortalized MEF-DKO-hiR2-FL-A431S-T7, MEF-DKO-hiR2-FL-V434E-T7, MEF-DKO-hiR2-FL-T436V-T7, MEF-DKO-hiR2-FL-Q437D-T7, MEF-DKO-hiR2-FL-L438S-T7, MEF-DKO-hiR2-FL-S448N-T7, MEF-DKO-hiR2-FL-I452V-T7, MEF-DKO-hiR2-FL-I464E-T7, MEF-DKO-hiR2-FL-D465A-T7, MEF-DKO-hiR2-FL-I477M-T7, MEF-DKO-hiR2-FL-K479Q-T7, MEF-DKO-hiR2-FL-G481P-T7, MEF-DKO-hiR2-FL-I483V-T7, MEF-DKO-hiR2-FL-E484H-T7, MEF-DKO-hiR2-FL-Q485S-T7, MEF-DKO-hiR2-FL-L486F-T7, MEF-DKO-hiR2-FL-V487I-T7, MEF-DKO-hiR2-FL-R489S-T7, MEF-DKO-hiR2-FL-E490A-T7, MEF-DKO-hiR2-FL-D492E-T7, MEF-DKO-hiR2-FL-L493R-T7, MEF-DKO-hiR2-FL-R495K-T7 and MEF-DKO-hiR2-FL-D496H-T7 cells were harvested with 10 mM EDTA in PBS, washed and resuspended in FACS buffer (PBS, 3% FBS, 0.05% sodium azide), and seeded in Nunc U-bottom 96-well plates (Thermo Fisher Scientific, USA) at approximately 1×10⁵ cells per well. To pellet cells and remove supernatants, the plates were centrifuged at 1,500 rpm and 4° C. for 3 minutes. For primary staining, cells were resuspended in 100 μl per well of either FACS buffer alone (controls) or the purified antibodies 3, 5, 16, 22, 34, 42, 43, 44, 48, and 50 of the invention at 3 μg/ml in FACS buffer and incubated on ice for 1 hour. Afterwards, plates were centrifuged at 1,500 rpm and 4° C. for 3 minutes and washed twice with 200 μl per well of FACS buffer. For secondary staining, cells were spun down and resuspended in 100 μl per well of PE-conjugated goat anti-mouse IgG F(ab′)2 detection fragment (Dianova, Germany) diluted 1:100 in FACS buffer. Protected from light, the cell suspensions were incubated on ice for 1 hour. Plates were then centrifuged at 1,500 rpm and 4° C. for 3 minutes and washed three times with 200 μl per well of FACS buffer. Finally, cells were resuspended in 150 μl per well of FACS buffer and analyzed using a BD Accuri™ C6 Plus flow cytometer (Becton Dickinson, Germany).

The target in a further assay is T2, hiR2-FL-T436V-T7 (human, UniProt Q6PJF5 1-856).
T2 sequence: T1 sequence with E434V, T436V
Kind of assay: FACS, MEF-DKO cells, 3 µg/ml.
Text: as §1
(A flow cytometer gives signals particle by particle.)

B1: antibody 48 (antibody, V domains shown)
VH: QVQLQQSGTELVRPGTSVKVSCKASGYAFTNYLIEWVKQRPGQGLEWIGVINPGSGFTKYNEKFKGKATLTADKSSSTVYMHLSSLTSEDSAVYFCARGLYRAMDYWGQGTSVTVSS
VL: DIQMTQSPASQSASLGESVTITCLASQTIATWLAWYQQKPGKSPQLLIYGATTLADGVPSRFSGGGSGTKFSFKISSLQAEDFVSYYCQQLYSTPYTFGGGTKLEIK
notes: mouse IgG, kappa light chain; also called clone #48; purified antibody 48
On to B1, for which the “loss of binding vs wild type” value with hiR2-FL-V434E-T7 and with hiR2-FL-T436V-T7 was not below 30% in each case.

B2: antibody 50 (antibody, V domains shown)
VH: B1 VH with T9A, T16A, T30S, V79A, H82Q
VL: B1 VL with A30G, G50A, T52A, T53S, S85N, L91I
notes: mouse IgG, kappa light chain; also called clone #50; purified antibody 50
Regarding B2, the “loss of binding vs wild type” value in the assay with hiR2-FL-V434E-T7 and with hiR2-FL-T436V-T7 was not below 30% throughout.
